Our source for the B max and Kd values is patent US20110059504A1 (GENERAL HOSPITAL, published 2011).

For orientation: Kd means a measure of binding affinity in units of concentration.

First the molecules themselves.
T1: human myostatin (human, UniProt O14793 267-375, biotinylated in selections and radioactive assays (site not stated))
T1 construct: Phage ELISA used both unbiotinylated and biotinylated myostatin; also called biotinylated human myostatin; myostatin-biotin
T1 sequence (looked up): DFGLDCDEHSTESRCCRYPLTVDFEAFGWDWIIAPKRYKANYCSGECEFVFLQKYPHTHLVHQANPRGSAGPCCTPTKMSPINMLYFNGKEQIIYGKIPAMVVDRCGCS

B1: 45927-A12 (designed binder)
chain: MTIPEIIIKVRGTQVVGSDMTVIVEFTNPLRVSEQTLRNVWVHLDGLGVTRPMKKMFGGIRVHSTVQWEEVVRPWVSGHRKLIASMSYVAEYGEWTHYSVYGELDVQIQRRDYKDDDDK
notes: group M3-Aext
B2: 45927-A11 (designed binder)
chain: MTIPEIIIKVRGTQVVGSDMTVIVEFTNPLKETLRNVWVHLDGPGVTRPMKKMFQKIPGCSTVQWEEVVRPWVSGHRKLIASMSMLGLPFSLRFIPVYGELDVQIQRRDYKDDDDK
notes: group M1-Aext
B3: 45927-B7 (M50T) (designed binder)
chain: MTIPEIIIKVRGTQVVGSDMTVIVEFTNPLKETLRNVWVHLDGPGVTRPTKKMFLKIPGCSTVQWEEVVRPWVSGHRKLIASMSMLGLPFSLRFIPVYGELDVQIQRRDYKDDDDK
notes: group M1-Aext; M50T
B4: 39633-G1 (designed binder)
chain: MTIPEIIIKVRGTQVVGSDMTVIVEFSNPFKETLRNVWVHLDGPGVTRPMKKMFREIPPKTTVQWEEVVRPWVSGHRKLIASMRTQYLIHLYGELDVQIQRRDYKDDDDK
notes: group M1-A50; V91L
B5: 39633-F4 (designed binder)
chain: MTIPEIIIKVRGTQVVGSDMTVIVEFSNPFKETLRNVWVHLDGPGVTRPMKKMFCEIRPNSIVQWEEVVRPWVSGHRKLIASMRTQYLIHLYGELDVQIQRRDYKDDDDK
notes: group M1-A50; V91L
B6: 39633-B3 (designed binder)
chain: MTIPEIIIKVRGTQVVGSDMTVIVEFTNPLSQTLSAVWVHLDGPGVTRPMKKMFREIPPKTTVQWEEVVRPWVSGHRKLIASMRTQYLIHLYGELDVQIQRRDYKDDDDK
notes: group M1-A50; V91L
B7: 39633-F5 (I3Y, M83I) (designed binder)
chain: MTYPEIIIKVRGTQVVGSDMTVIVEFTNPFKETLRSVWVHLDGPGVTRPMKKMFREIPPKTTVQWEEVVRPWVSGHRKLIASIRTQYLIHLYGELDVQIQRRDYKDDDDK
notes: group M1-A50; V91L, I3Y, M83I
B8: 39633-E2 (designed binder)
chain: MTIPEIIIKVRGTQVVGSDMTVIVEFSNPFKETLRNVWVHLDGPGVTRPMKKMFCEVRPNSVVQWEEVVRPWVSGHRKLIASMRTQYLIHLYGELDVQIQRRDYKDDDDK
notes: group M1-A50; V91L
B9: 39633-D6 (designed binder)
chain: MTIPEIIIKVRGTQVVGSDMTVIVEFTNPFKETLRNVWVHLDGPGVTRPMKKMFCEIRPNSIVQWEEVVRPWVSGHRKLIARCSLSPWHVYGELDVQIQRRDYKDDDDK
notes: group M3-A50; ΔS82, M83R; also called M020 (clone ID)
B10: 39908-C11 (designed binder)
chain: MTIPEIIIKVRGTQVVGSDMTVIVEFSNPFKETLRNVWVHLDGPGVTRPMKKMFSEIRTNATVQWEEVVRPWVSGHRKLIARCSLSPWHVYGELDVQIQRRDYKDDDDK
notes: group M3-A50; ΔS82, M83R; also called M22 (clone ID)
B11: 39633-A5 (V46I) (designed binder)
chain: MTIPEIIIKVRGTQVVGSDMTVIVEFSNPFKETLRNVWVHLDGPGITRPMKKMFCEVRPNSIVQWEEVVRPWVSGHRKLIARCSLSPWHVYGELDVQIQRRDYKDDDDK
notes: group M3-A50; ΔS82, M83R, V46I
B12: 39908-A1 (designed binder)
chain: MTIPEIIIKVRGTQVVGSDMTVIVEFSNPFKETLRNVWVHLDGPGVTRPMKKMFCEIRPNSIVQWEEVVRPWVSGHRKLIARCSLSPWHVYGELDVQIQRRDYKDDDDK
notes: group M3-A50; ΔS82, M83R; also called M02 (clone ID)
B13: 39908-A3 (designed binder)
chain: MTIPEIIIKVRGTQVVGSDMTVIVEFTNPFKETLRSVWVHLDGPGVTRPMKKMFCEIRPNRIVQWEEVVRPWVSGHRKLIARCSLSPWHVYGELDVQIQRRDYKDDDDK
notes: group M3-A50; ΔS82, M83R; also called M09 (clone ID)
B14: 39908-A2 (designed binder)
chain: MTIPEIIIKVRGTQVVGSDMTVIVEFTNPFKETLRNVWVHLDGPGVTRPMKKMFRDIRPKTKVQWEEVVRPWVSGHRKLIARCSLSPWHVYGELDVQIQRRDYKDDDDK
notes: group M3-A50; ΔS82, M83R; also called M03 (clone ID)
B15: 39908-B2 (designed binder)
chain: MTIPEIIIKVRGTQVVGSDMTVIVEFTNPFKETLRSVWVHLDGPGVTRPMKKMFREIPPKTTVQWEEVVRPWVSGHRKLIARCQLLPWHVYGELDVQIQRRDYKDDDDK
notes: group M3-A50; ΔS82, M83R; also called M07 (clone ID)
B16: 39908-D2 (designed binder)
chain: MTIPEIIIKVRGTQVVGSDMTVIVEFTNPFKETLRSVWVHLDGPGVTRPMKKMFREIPPKTTVQWEEVVRPWVSGHRKLIARCSLSPWHVYGELDVQIQRRDYKDDDDK
notes: group M3-A50; ΔS82, M83R; also called M29 (clone ID)
B17: 39908-A7 (designed binder)
chain: MTIPEIIIKVRGTQVVGSDMTVIVEFSNPFKETLRNVWVHLDGPGVTRPMKKMFCEIRPNSIVQWEEVVRPWVSGHRKLIARMTLRPWHVYGELDVQIQRRDYKDDDDK
notes: group M3-A50; ΔS82, M83R; also called M24 (clone ID)
B18: 39633-G6 (designed binder)
chain: MTIPEIIIKVRGTQVVGSDMTVIVEFTNPFKETLRSVWVHLDGPGVTRPMKKMFREIPPKTTVQWEEVVRPWVSGHRKLIASMTLRPWHVYGELDVQIQRRDYKDDDDK
notes: group M3-A50; FG loop printed -TLRPW (one residue deleted), no scaffold mutation printed; also called M18 (clone ID)
B19: 39908-C6 (designed binder)
chain: MTIPEIIIKVRGTQVVGSDMTVIVEFTNPFKETLRSVWVHLDGPGVTRPMKKMFCEIRPNSIVQWEEVVRPWVSGHRKLIARCSLSPWHVYGELDVQIQRRDYKDDDDK
notes: group M3-A50; ΔS82, M83R; also called M05 (clone ID)
B20: 39973-B12 (designed binder)
chain: MTIPEIIIKVRGTQVVGSDMTVIVEFKHDRYRYLQQVWVHLDGPGVTRPMKKMFKLIIFSYPVQWEEVVRPWVSGHRKLIASMRFMCPSHVYGELDVQIQRRDYKDDDDK
notes: group M3-A
B21: 45927-E5 (designed binder)
chain: MTIPEIIIKVRGTQVVGSDMTVIVEFTNPSNYRPCILRNVWVHLDGPGVTRPMKKMFKMIVYHSTVQWEEVVRPWVSGHRKLIASMSKFELSGTSSRGRVYGELDVQIQRRDYKDDDDK
notes: group M3-Aext
B22: 45927-E1 (designed binder)
chain: MTIPEIIIKVRGTQVVGSDMTVIVEFTNPLKETLRNVWVHLDGPGVTRPMKKMFTGILQWSTVQWEEVVRPWVSGHRKLIASMSPHAWWQHHGNFSVYGELDVQIQRRDYKDDDDK
notes: group M2-Aext
B23: 45927-A10 (designed binder)
chain: MTIPEIIIKVRGTQVVGSDMTVIVEFTNPKRDTSVWLRNVWVHLDGPGVTRPMKKMFFTIGYPSTVQWEEVVRPWVSGRRKLIASMSPSILSKGNIGLGVYGELDVQIQRRDYKDDDDK
notes: group M3-Aext; H76R (wild type scaffold numbering)
B24: 39973-D2 (designed binder)
chain: MTIPEIIIKVRGTQVVGSDMTVIVEFYFSPGARLATVWVHLDGPGVTRPMKKMFHSIYVPFWVQWEEVVRPWVSGHRKLIASMTTTVQGHVYGELDVQIQRRDYKDDDDK
notes: group M3-A
B25: 39973-G3 (designed binder)
chain: MTIPEIIIKVRGTQVVGSDMTVIVEFTNPLKETLRNVWVHLDGPGVTRPMKKMFEQIRESEYVQWEEVVRPWVSGHRKLIASMLTETRPHVYGELDVQIQRRDYKDDDDK
notes: group M3-A
B26: 39973-F10 (designed binder)
chain: MTIPEIIIKVRGTQVVGSDMTVIVEFTNPLKETLRNVWVHLDGPGVTRPMKKMFATIPPYLPVQWEEVVRPWVSGHRKLIASMPQLIHLHVYGELDVQIQRRDYKDDDDK
notes: group M1-A

The target in the assay is T1, human myostatin. The assay can be described thus: radioactive equilibrium binding assay. Here is the method:
Affinities of selected F13β2 binders to biotinylated myostatin were determined in radioactive equilibrium binding assay (FIGS. 11A and 11B; Table 3). ³⁵S-labeled binder proteins from selection pools and single clones were produced in vitro in a rabbit reticulocyte lysate translation kit (Ambion) and purified on M2-agarose (Sigma). Varying concentrations of biotinylated human myostatin (0-100 nM) or other proteins (protein 1: 100 nM; peptide 1: 250 nM; protein 2: 50 nM) were incubated with a constant concentration of the purified binder protein (1 or 2 nM) at 30° C. for 30 min in buffer B (1×PBS, 0.02% Triton X-100 [pH 7.4]). The receptor-binder complexes were captured by using 25 μl of M280 or Protein A (Dynal) (protein 2) magnetic beads for 10 min at room temperature on a Kingfisher instrument (Thermo Fisher Scientific). The beads were washed five times with 100 μl buffer B, and the amount of ³⁵S-methionine remained on the beads was measured by scintillation counting. Data were analyzed by using the GraphPad Prism software (GraphPad Software, Inc., San Diego, Calif.), fitted with a one-site, nonlinear binding equation. For inhibition assay the binding of ³⁵S-labeled proteins to 20 or 25 nM of biotinylated human myostatin was performed in the presence of varying concentrations of inhibitor (human activin receptor IIB/Fc chimera (R&D Systems, Minneapolis, Minn.) (0-250 nM); protein 1 (100 nM), peptide 1 (250 nM), protein 2 (50 nM); proteins, produced in E. coli, M17, M7, M29, M21, M1-1, WT F13β2 (500 nM)).
On to B1, for which the B max was 3.08% and the dissociation constant (Kd) stood at 0.00147 µM.

Take B2: the B max is 41.2% and the Kd was determined as 0.065 µM.

Regarding B3, the B max was 46.4% and the equilibrium dissociation constant (Kd) worked out at 0.0576 µM.

Consider B4, for which the B max came to 52% and the Kd is 0.0389 µM.

On to B5, for which the B max is 28.5% and the equilibrium dissociation constant (Kd) was 0.0267 µM.

In the case of B6, the B max was determined as 6.14% and the Kd was found to be 0.00993 µM.

Turning to B7, the B max amounted to 69.7% and the Kd was 0.0321 µM.

B8: the B max was 21% and the dissociation constant Kd is 0.0273 µM.

For the molecule B9, the B max came to 79.6% and the dissociation constant (Kd) was 0.0203 µM.

On to B10, for which the B max amounted to 73.7% and the Kd was 0.017 µM.

Take B11: the B max worked out at 78.3% and the dissociation constant Kd worked out at 0.0194 µM.

As to B12, the B max turned out to be 50.2% and the Kd was 0.012 µM.

On to B13, for which the B max stood at 57.2% and the Kd was 0.011 µM.

B14: the B max was 68.5% and the Kd was determined as 0.0152 µM.

On to B15, for which the B max was 75.9% and the dissociation constant Kd was determined as 0.0271 µM.

Consider B16, for which the B max was 68.8% and the Kd is 0.0233 µM.

B17: the B max was 109% and the Kd stood at 0.0201 µM.

For B18, the B max turned out to be 75.1% and the Kd turned out to be 0.0197 µM.

Take B19: the B max was 52.2% and the dissociation constant (Kd) worked out at 0.0197 µM.

For the molecule B20, the B max was found to be 7.77% and the Kd came out at 0.0345 µM.

On to B21, for which the B max is 8.36% and the equilibrium dissociation constant (Kd) was found to be 0.0641 µM.

Regarding B22, the B max turned out to be 4.57% and the equilibrium dissociation constant (Kd) was found to be 0.00604 µM.

Turning to B23, the B max amounted to 8.07% and the Kd came out at 0.0161 µM.

With B24, the B max was 7.66% and the Kd was determined as 0.0329 µM.

For the molecule B25, the B max was 1.81% and the Kd was 0.022 µM.

Consider B26, for which the B max was determined as 68% and the Kd came to 0.0286 µM.
